The subject of data set [1] is T1, CCCC(=O)Oc1ccc([N+](=O)[O-])cc1.
T1 construct: dimer ~70 kDa; residues Cys49 and Cys207
As to the kind of experiment: p-nitrophenol release, Lineweaver-Burk plot. The class given is biochemical, uncultured bacterium. Conditions: 50 mM Tris-HCl pH 8.0, 100 mM NaCl, 30 °C, 0.1-1.25 mM substrate. An excerpt:
p-nitrophenol release, Lineweaver-Burk plot on PMGL3

The target in data set [2] is PMGL3 mutant C49V (not stated (permafrost metagenomic library)). Kind of data set: SEC; Superdex 75 10/300 GL, 0.4 mL/min, 100 mM Tris-HCl pH 8.0, 150 mM NaCl; sample after incubation for 1 h at 40 °C; column calibrated with 29-669 kDa standards.
For data set [3] the target is unchanged. As to the kind of experiment: SEC; Superdex 75 10/300 GL, 0.4 mL/min, 100 mM Tris-HCl pH 8.0, 150 mM NaCl; fresh sample before heating; column calibrated with 29-669 kDa standards. Background: SEC sorts molecules by how far they enter the pores of the column.
Data set [4] deals with PMGL3 mutant C207F (not stated (permafrost metagenomic library)). As to the kind of experiment: SEC; Superdex 75 10/300 GL, 0.4 mL/min, 100 mM Tris-HCl pH 8.0, 150 mM NaCl; sample after incubation for 1 h at 40 °C; column calibrated with 29-669 kDa standards.
The target is the same in data set [5]. Kind of data set: SEC; Superdex 75 10/300 GL, 0.4 mL/min, 100 mM Tris-HCl pH 8.0, 150 mM NaCl; fresh sample before heating; column calibrated with 29-669 kDa standards.
For data set [6], the target named is cold-active esterase PMGL3 (wild type) (not stated (permafrost metagenomic library)). As to the kind of experiment: SEC; Superdex 75 10/300 GL, 0.4 mL/min, 100 mM Tris-HCl pH 8.0, 150 mM NaCl; sample after incubation for 1 h at 40 °C; column calibrated with 29-669 kDa standards.
Data set [7] shares this target. As to the kind of experiment: SEC; Superdex 75 10/300 GL, 0.4 mL/min, 100 mM Tris-HCl pH 8.0, 150 mM NaCl; fresh sample before heating; column calibrated with 29-669 kDa standards.

What is called Km is the concentration of substrate that gives half-maximal velocity. Usually Vmax stands for the top rate of the reaction or transport when substrate is in excess. For orientation: kcat means the maximal rate divided by the concentration of active sites. The term kcat/Km denotes the turnover number divided by the Michaelis constant. As a reminder, the stoichiometry N is a count of units in the complex or per binding partner.

Consider PMGL3 (unidentified), for which, in data set [1], the Km was 980 µM, the maximum rate (Vmax) amounted to 165000 µM/min/mg, the kcat came to 91.5 s⁻¹ and the specificity constant (kcat/Km) was 93400 M⁻¹ s⁻¹.

With PMGL3 (unidentified; C49V), in data set [1], the Km is 1290 µM, the maximum rate (Vmax) amounted to 94700 µM/min/mg, the kcat was 52.6 s⁻¹ and the kcat/Km came to 40800 M⁻¹ s⁻¹.

Take PMGL3 (unidentified; C207F): in data set [1], the Km is 170 µM, the Vmax was 94600 µM/min/mg, the kcat is 52.5 s⁻¹ and the kcat/Km was found to be 309000 M⁻¹ s⁻¹.

For PMGL3 mutant C49V (enzyme), the stoichiometry N came out at 4 in data set [2] and 2 in data set [3].

In the case of PMGL3 mutant C207F (enzyme), the stoichiometry N amounted to 4 in data set [4] and 2 in data set [5].

Take “cold-active esterase PMGL3 (wild type) (enzyme)”: the stoichiometry N came to 4 in data set [6] and 2 in data set [7].

The record behind these values is PMC6995580, “Thermal Inactivation of a Cold-Active Esterase PMGL3 Isolated from the Permafrost Metagenomic Library” (Biomolecules, 2019).
